# From patent US20120003668A1, “HIGH RESOLUTION COMPLEX STRUCTURE AND ALLOSTERIC EFFECTS OF LOW MOLECULAR WEIGHT ACTIVATORS ON THE PROTEIN KINASE PDK1” (UNIVERSITAET DES SAARLANDES, priority 2008, published 2012)
# Target: T1, PDK1 catalytic domain (Homo sapiens, UniProt O15530)
# T1 construct: The catalytic domain (CD) of PDK1 50-359 and its mutants
# T1 sequence (O15530 50-359): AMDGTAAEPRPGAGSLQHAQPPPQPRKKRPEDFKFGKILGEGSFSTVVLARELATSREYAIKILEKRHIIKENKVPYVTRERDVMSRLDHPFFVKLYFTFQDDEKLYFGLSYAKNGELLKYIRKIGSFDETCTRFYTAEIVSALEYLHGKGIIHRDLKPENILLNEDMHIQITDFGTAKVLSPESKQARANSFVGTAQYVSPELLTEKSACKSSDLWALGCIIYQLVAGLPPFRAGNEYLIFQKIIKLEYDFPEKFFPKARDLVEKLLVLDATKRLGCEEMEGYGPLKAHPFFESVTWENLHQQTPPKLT
# Test: TNP-ATP fluorescence probing of the ATP binding site conformation
# Assay type: biochemical
# Conditions: 40 μM TNP-ATP, 15 μM PDK1 catalytic domain
# From the text: Probing the conformation of the ATP binding site in PDK1: The activation of PDK1 by HM-polypeptides and small compounds is due to a change in the conformation of the enzyme. We probed the conformation of the ATP binding site in PDK1 by scanning the steady-state fluorescence of TNP-ATP/PDK1, in the presence or absence of P-HM-polypeptides, PIFtide, or small molecular weight compounds. Data were obtained in a Varian Cary Eclipse spectrofluorometer (excitation λ=479 nm; emission scanning, λ=500-600 nm; excitation slit=10 nm; emission slit=10 nm) at a rate of 200 nm/min, with 150 datapoints/100 nm scanning and 0.3 s averaging time. The incubation was performed at 20° C. in a buffer containing 50 mM Tris pH 7.5, 0.1 mM EDTA, 187 mM NaCl, 40 μM TNP-ATP, 15 μM PDK1 catalytic domain, 1 mM DTT and 1% DMSO. In the absence of PDK1, TNP-ATP produced approximately 1.5 arbitrary units (a.u.) of fluorescence, and the inclusion of PDK1 increased its fluorescence intensity to approximately 3.3 a.u. […] In preliminary tests, inclusion of 2.5 mM MgCl2 in the assay mix produced similar results. Data for each condition are the average of 3 scans.
sequence,measurement,value
"REPRILSEEEQEMFRDFDYIADWC [PIFtide, polypeptide derived from the C-terminal 24 amino acids of the PDK1 substrate PRK2]",effect on TNP-ATP fluorescence intensity in the presence of PDK1,decreased
